These results are taken from PMC8649762, “A Hyperthermoactive-Cas9 Editing Tool Reveals the Role of a Unique Arsenite Methyltransferase in the Arsenic Resistance System of Thermus thermophilus HB27” (mBio, 2021).

Where two headings read alike, the source gives them in different places.

In general, stoichiometry N refers to the number of molecules, sites or subunits per partner or assembly.

Data set [1] deals with T1, TtArsM (Thermus thermophilus HB27) (UniProt Q72LF0).
T1 sequence: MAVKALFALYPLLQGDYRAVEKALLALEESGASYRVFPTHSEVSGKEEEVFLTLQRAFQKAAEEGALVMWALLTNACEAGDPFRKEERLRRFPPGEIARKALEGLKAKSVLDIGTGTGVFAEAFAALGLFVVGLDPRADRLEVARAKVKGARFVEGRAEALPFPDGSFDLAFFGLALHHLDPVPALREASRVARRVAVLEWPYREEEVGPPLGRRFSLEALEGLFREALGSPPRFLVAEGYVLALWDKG
As to the kind of experiment: EMSA. As to conditions: EMSA: 20 ng parsM, 1 ug poly(dI-dC), SYBR Gold stain; buffer, salt, pH and temperature as in previous work (refs 23, 62), not given. (A gel shift assay detects complexes by their altered migration in electrophoresis.)

Another data set addresses T2, TtSmtB-TtArsM complex (Thermus thermophilus, UniProt Q72KG0).
T2 construct: gene smtB; recombinant TtSmtB (E. coli, C-terminal His tag removed) plus C-terminally His-tagged TtArsM; with Arsenite methyltransferase (ArsR family transcriptional regulator / SAM-dependent methyltransferase domain protein)
The class given is binding. To be noted: 1:100 protein/arsenic ratio, arsenite preincubated with TtSmtB 10 min at 60 °C, co-IP buffer pH 7.5, weakens the protein-protein complex.

The next data set has as its target T3, TtArsM (TTC0109) (Thermus thermophilus, UniProt Q72LF0).
T3 construct: gene TT_C0109; full-length, C-terminal His tag (pET30b NdeI/HindIII), E. coli BL21-CodonPlus(DE3)-RIL
T3 sequence (Q72LF0 1-249): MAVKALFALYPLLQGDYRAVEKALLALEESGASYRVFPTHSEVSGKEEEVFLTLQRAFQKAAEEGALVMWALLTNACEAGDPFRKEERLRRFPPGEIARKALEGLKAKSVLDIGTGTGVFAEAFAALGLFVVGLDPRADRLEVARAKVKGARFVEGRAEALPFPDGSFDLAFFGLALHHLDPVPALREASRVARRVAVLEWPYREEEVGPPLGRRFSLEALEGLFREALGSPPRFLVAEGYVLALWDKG
Put plainly: coupled colorimetric SAH-release methyltransferase assay, […] nm; products by GC-MS. The class given is biochemical. To be noted: methyl donor; same.

Data set [2] concerns the molecule itself. As to the kind of experiment: SEC; 500 μg purified TtArsM on analytical Superdex PC75, 50 mM Tris-HCl pH 7.5, 0.2 M KCl; calibrated with gel filtration markers. (Size exclusion chromatography separates by hydrodynamic size, large species first.)
For data set [3], the target named is T4, Recombinant TtSmtB with the His tag removed (Thermus thermophilus HB27, UniProt Q72KG0 1-123).
T4 construct: TtSmtB, ArsR/SmtB family transcriptional repressor of Thermus thermophilus HB27; source: E. coli BL21-CodonPlus (DE3)-RIL, pET28/TtsmtB, purified; His tag removed; not shown: His tag, C-terminal, cleaved
T4 sequence (looked up): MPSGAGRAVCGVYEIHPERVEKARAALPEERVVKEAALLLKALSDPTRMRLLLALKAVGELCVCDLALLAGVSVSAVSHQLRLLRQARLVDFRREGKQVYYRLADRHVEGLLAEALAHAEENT
As to the kind of experiment: co-IP; 5 μg TtSmtB (His tag removed) and 5 μg His-tagged TtArsM in co-IP buffer (50 mM Tris-HCl pH 7.5, 150 mM NaCl, 10% glycerol, 0.1% Triton X-100), 4°C, 2 h; immunoprecipitated with anti-TtSmtB antibodies and protein A-Sepharose, blot with anti-His; with or without arsenite, arsenate, cadmium or antimony at 1:0, 1:25, 1:50, 1:100 molar ratios preincubated with TtSmtB. As to conditions: both partners purified.

Regarding “GGAAGGGGAAGCGGTGTTTCTCGCCCCCGAGGCCAATCCCCCCTACGAGGAGGCGGACCAGGCGGGAAGGCGCGCGGGGAACCGCCCCGCCCTATACTTGGGGAGATG (double strand) [parsM]”, the binding result in data set [1] was “no binding”.
On to `O[As](O)O` [arsenite], for which, at TtSmtB-TtArsM complex, the “fold decrease in complex band intensity” value was “up to 3”.
As to `O=[As](O)(O)O` [arsenate], on TtSmtB-TtArsM complex (with arsenate), the “fold decrease in complex band intensity” value is listed as “up to 3”.
On to `C[S+](CC[C@H](N)C(=O)O)C[C@H]1O[C@@H](n2cnc3c(N)ncnc32)[C@H](O)[C@@H]1O` (some centres unmarked) [SAM], for which the “coupled colorimetric SAH-release methyltransferase assay, 510 nm; products by GC” value at TtArsM (TTC0109) is given as “formation of S-adenosylhomocysteine (SAH) from SAM after transfer of methyl group(s) on the substrate”.

B1: Recombinant C-terminal His-tagged TtArsM (TTC0109) (enzyme, Thermus thermophilus HB27, UniProt Q72LF0 1-249, looked up)
chain: MAVKALFALYPLLQGDYRAVEKALLALEESGASYRVFPTHSEVSGKEEEVFLTLQRAFQKAAEEGALVMWALLTNACEAGDPFRKEERLRRFPPGEIARKALEGLKAKSVLDIGTGTGVFAEAFAALGLFVVGLDPRADRLEVARAKVKGARFVEGRAEALPFPDGSFDLAFFGLALHHLDPVPALREASRVARRVAVLEWPYREEEVGPPLGRRFSLEALEGLFREALGSPPRFLVAEGYVLALWDKG
notes: TtArsM (TTC0109) of Thermus thermophilus HB27; TtarsM gene PCR amplified from the genome and cloned NdeI/HindIII into pET30b(+); predicted mass 29.1 kDa; source: E. coli BL21-CodonPlus (DE3)-RIL, pET30b(+)/TtarsM, purified (HisTrap); not shown: His tag, C-terminal, kept
Consider B1, for which the “stoichiometry N” value in data set [2] was 2. Moreover, in data set [3], the “fold decrease of the co-IP band with arsenate (1:100 protein/arsenic ratio) against the complex without metal” value was at most 3 fold, the “fold decrease of the co-IP band with arsenite (1:100 protein/arsenic ratio) against the complex without metal” value was at most 3 fold and the “fold increase of the co-IP band with cadmium against the complex without metal” value is at most 2 fold.
